{"source": "patent US20010039016", "about": "“Use of expression profiling for identifying molecular markers useful for diagnosis of metastatic cancer” (published 2001)", "binders": {"B1": {"name": "FP1 (dsDNA)", "DNA 1": "CAGCTAATCTCTCTGTTTATAGCTCTGACCTTTC", "DNA 2": "GAAAGGTCAGAGCTATAAACAGAGAGATTAGCTG"}, "B2": {"name": "FP1-CCC (dsDNA)", "DNA 1": "B1 DNA 1 with T16C, T17C, T18C", "DNA 2": "B1 DNA 2 with A17G, A18G, A19G"}}, "key": {"Cdx2 [1]": {"target": "T1, Cdx2 (Mus musculus, UniProt P43241 P43241:1-311)", "T1 sequence": "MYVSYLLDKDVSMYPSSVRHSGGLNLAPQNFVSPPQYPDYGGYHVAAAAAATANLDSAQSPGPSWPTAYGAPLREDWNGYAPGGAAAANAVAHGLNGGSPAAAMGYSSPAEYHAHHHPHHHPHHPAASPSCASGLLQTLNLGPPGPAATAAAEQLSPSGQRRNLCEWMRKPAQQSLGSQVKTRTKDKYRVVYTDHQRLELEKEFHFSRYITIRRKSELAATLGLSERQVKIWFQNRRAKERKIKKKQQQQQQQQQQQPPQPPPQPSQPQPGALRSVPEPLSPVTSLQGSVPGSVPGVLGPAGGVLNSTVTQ", "experiment": "EMSA; supershifted by anti-Cdx2, 10 mM Tris pH 7.5, 50 mM NaCl, 2.5 mM MgCl2, room temp", "settings": "tags: pRc/CMV-Cdx2, TNT Quick-coupled (Promega); label: 32P 5'-end", "method": "(§1) Electromobility Shift Assay (EMSA). Protein-DNA binding reactions performed in the same buffer as the DNase I protection assay (4% glycerol, 10 mM Tris-HCl (pH 7.5) 50 mM NaCl, 2.5 mM MgCl₂ and 5 mM DTT) included […] of Poly(dI.dC)-Poly(dI.dC) (Amersham Pharmacia Biotech, Piscataway, N.J.) and 30 kcpm of probe. Reactions were initiated by the addition of nuclear extract and incubated for 30 min at room temp to produce protein complexes which were separated on a 6% non-denaturing, polyacrylamide (37.5:1) gel in 0.5× TBE running buffer. Gels were dried prior to visualization of radiolabelled complexes by autoradiography. In competition assays, unlabelled competitor was added to the reaction mixtures at concentrations ranging from 25-fold to 250-fold molar excess of the labeled probe prior to the addition of the nuclear extract. Supershift assays were performed by adding […] of murine Cdx2 antibody after an initial incubation period of 30 min; incubation was then continued for an additional 30 min. Transcribed and translated murine Cdx2 protein was generated in vitro using linearized pRc/CMV-Cdx2 expression vector as a template for the TNT-Quickcoupled Kit (Promega).\n(§2) Cdx2 binds specifically to the FP1 probe. To determine whether FP1 is a binding site for Cdx2, labeled FP1 was incubated with in vitro transcribed and translated murine Cdx2. […]"}, "Cdx2 [2]": {"target": "T1, Cdx2", "experiment": "EMSA; no specific complex formed", "settings": "tags: pRc/CMV-Cdx2, TNT Quick-coupled (Promega); label: 32P 5'-end", "method": "as §1, §2"}}, "note": "Numbering of substitutions follows the chain as printed.", "data": [{"binder": "B1", "values": [{"measurement": "binding result", "setting": "Cdx2 [1]", "value": "binds"}]}, {"binder": "B2", "values": [{"measurement": "binding result", "setting": "Cdx2 [2]", "value": "no binding"}]}]}
